Residue numbers refer to the chain shown, from its start. In names and notes the source's numbering stands.
B1: P. furiosus Rad50 nucleotide binding domain L51C/L828F, LRET-labelled (domain or fragment, Pyrococcus furiosus)
chain: MKLERVTVKNFRSHSDTVVEFKEGINLIIGQNGSGKSSLLDAILVGLYWPCRIKDIKKDEFTKVGARDTYIDLIFEKDGTKYRITRRFLKGYSSGEIHAMKRLVGNEWKHVTEPSSKAISAFMEKLIPYNIFLNAIYIRQGQIDAILESDEAREKVVREVLNLDKFETAYKKLSELKKTINNRIKEYRDILARTEGGAGGAGGRERVKKEIKDLEKAKDFTEELIEKVKKYKALAREAALSKIGELASEIFAEFTEGKYSEVVVRAEENKVRLFVVWEGKERPLTFLSGGERIALGLAFRLAMSLYLAGEISLLILDEPTPYFDEERRRKLITIMERYLKKIPQVILVSHDEELKDAADHVIRISLENGSSKVEVVS
modifications: Tb3+ chelate DTPA-cs124-EMPH (donor) or Bodipy FL maleimide (acceptor) on the cysteine L51C
notes: Rad50, Pyrococcus furiosus, amino acids 1-195; linker that replaces most of the coiled-coil and the Zn-hook; Rad50, Pyrococcus furiosus, amino acids 709-882; Measured within the MR^NBD complex with Mre11; also called L828F MR^NBD (LRET); source: labelled and passed over Superdex 200 Increase
B2: P. furiosus Rad50 nucleotide binding domain L51C/D829N, LRET-labelled (domain or fragment, Pyrococcus furiosus)
chain: B1 chain with F323L, D324N
modifications: Tb3+ chelate DTPA-cs124-EMPH (donor) or Bodipy FL maleimide (acceptor) on the cysteine L51C
notes: Rad50, Pyrococcus furiosus, amino acids 1-195; linker that replaces most of the coiled-coil and the Zn-hook; Rad50, Pyrococcus furiosus, amino acids 709-882; Measured within the MR^NBD complex with Mre11; also called D829N MR^NBD (LRET); source: labelled and passed over Superdex 200 Increase
B3: P. furiosus Rad50 nucleotide binding domain L51C/D829A, LRET-labelled (domain or fragment, Pyrococcus furiosus)
chain: B1 chain with F323L, D324A
modifications: Tb3+ chelate DTPA-cs124-EMPH (donor) or Bodipy FL maleimide (acceptor) on the cysteine L51C
notes: Rad50, Pyrococcus furiosus, amino acids 1-195; linker that replaces most of the coiled-coil and the Zn-hook; Rad50, Pyrococcus furiosus, amino acids 709-882; Measured within the MR^NBD complex with Mre11; also called D829A MR^NBD (LRET); source: labelled and passed over Superdex 200 Increase
B4: P. furiosus Rad50 nucleotide binding domain L51C/L828A, LRET-labelled (domain or fragment, Pyrococcus furiosus)
chain: B1 chain with F323A
modifications: Tb3+ chelate DTPA-cs124-EMPH (donor) or Bodipy FL maleimide (acceptor) on the cysteine L51C
notes: Rad50, Pyrococcus furiosus, amino acids 1-195; linker that replaces most of the coiled-coil and the Zn-hook; Rad50, Pyrococcus furiosus, amino acids 709-882; Measured within the MR^NBD complex with Mre11; also called L828A MR^NBD (LRET); source: labelled and passed over Superdex 200 Increase

Tests used:
[1] = molecular target: Mre11^HLH-Rad50^NBD, wild type (Pyrococcus furiosus) (UniProt P58301); experiment: SEC; Superdex 200 Increase 10/300 GL, 4 °C, with 5 mM ATP; fraction dimer = area of the dimer peak over the areas of monomer and dimer peaks; monomer to dimer
[2] = molecular target: T1, Pf MR^NBD complex (Mre11-Rad50^NBD) (Pyrococcus furiosus, UniProt P58301, DEL196-708); experiment: Mre11 exonuclease assay, 2-aminopurine fluorescence (Exo2 dsDNA); format: biochemical; settings: 1 mM AMP-PNP, 1 mM MnCl2, 5 mM MgCl2, 60 C, pH 7.5; binds Rad50 and stabilizes the closed state that occludes the Mre11 active site
T1 construct: ~180 kDa complex; with DNA double-strand break repair protein Mre11

[3] = molecular target: P. furiosus Rad50 nucleotide binding domain L51C/L828A, LRET-labelled (UniProt P58301); experiment: LRET time course; settings: Rad50 NBD in MRNBD complex with Mre11; after addition of saturating ATP; parent: est. 1.0; read off a plot
[4] = molecular target: P. furiosus Rad50 nucleotide binding domain L51C/L828F, LRET-labelled (UniProt P58301); experiment: LRET time course; settings: Rad50 NBD in MRNBD complex with Mre11; after addition of saturating ATP; parent: est. 1.0; read off a plot
[5] = molecular target: P. furiosus Rad50 nucleotide binding domain L51C/D829N, LRET-labelled (UniProt P58301); experiment: LRET time course; settings: Rad50 NBD in MRNBD complex with Mre11; after addition of saturating ATP; parent: est. 1.0; read off a plot
[6] = molecular target: the molecule itself; experiment: FRET or BRET; LRET time course: increase of donor-sensitized Bodipy FL emission after addition of 2 mM ATP to MR complexes; kex = k_assoc + k_dissoc of open to closed; 50 mM Tris, 200 mM NaCl, 5 mM MgCl2, pH 7.5, 50 °C
[7] = molecular target: the molecule itself; experiment: FRET or BRET; LRET between Tb3+ chelate (donor) and Bodipy FL (acceptor) on L51C of the two Rad50^NBD in MR^NBD complexes with Mre11; donor-sensitized acceptor lifetimes, three-exponential fit; no ATP (apo); 0.5 uM wild type, L828A, D829A or 2.0 uM L828F, D829N complexes; 50 mM Tris, 200 mM NaCl, 5 mM MgCl2, pH 7.5, 50 °C; percent of LRET-visible molecules only
[8] = molecular target: the molecule itself; experiment: FRET or BRET; as a1 but with 2 mM ATP (ATP-bound); MR^NBD complexes with Mre11; 50 mM Tris, 200 mM NaCl, 5 mM MgCl2, pH 7.5, 50 °C; percent of LRET-visible molecules only

Molecule	fold faster approach to equilibrium (kex) than wild type [6] [fold]	percent of molecules in the closed state [7] [%]	percent of molecules in the closed state [8] [%]	further results
Mre11^HLH-Rad50^NBD, wild type (from UniProt P58301 1-195; P58301 709-882) (complex)	–	–	–	percent converted to a stable dimer upon addition of ATP [1]: 30%; stoichiometry N [1]: 2
Nc1ncnc2c1ncn2[C@@H]1O[C@H](COP(=O)(O)OP(=O)(O)NP(=O)(O)O)[C@@H](O)[C@H]1O [AMP-PNP]	–	–	–	Mre11 exonuclease assay, 2-aminopurine fluorescence (Exo2 dsDNA) [2]: AMP-PNP, which stabilizes the complex into the closed state and occludes the Mre11 active
P. furiosus Rad50 nucleotide binding domain L51C, LRET-labelled (from UniProt P58301) L828A	–	–	–	ratio to parent [3]: 4.4
P. furiosus Rad50 nucleotide binding domain L51C, LRET-labelled (from UniProt P58301) L828F	–	–	–	ratio to parent [4]: 4.2
P. furiosus Rad50 nucleotide binding domain L51C, LRET-labelled (from UniProt P58301) D829N	–	–	–	ratio to parent [5]: 8.7
B1	~4	30	30	–
B2	~8	33	33	–
B3	–	42	60	–
B4	~4	46	54	–

Reference: publication PMC7049730 (Nucleic Acids Research, 2019)
